Measured values as given in the supplement of paper PMC10567573.
± gives the standard deviation.

Assay: protein stability index of a GFP-peptide fusion (GPS, HEK-293T) (PSI 1-6); higher = more stable
[1] = treatment: DMSO, c terminus: a fixed tail appended
[2] = treatment: MLN4924 1 uM, 8 h, c terminus: a fixed tail appended
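Also: 24-mer peptide tiles fused after GFP, lentivirally expressed, FACS-sorted into six equal bins by GFP/DsRed ratio, decoded by Illumina sequencing, PSI is the read-weighted mean bin number.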

Sequence | protein stability index [1] | protein stability index [2] | protein stability index (treatment: DMSO, c terminus: native) | protein stability index (treatment: MLN4924 1 uM, 8 h, c terminus: native)
LLPQERPLMQGPRTRPRKPIRCGE [KLHL20] | 3.71 ± 0.35 | 3.98 ± 0.084 | – | –
EDDVSFLMKHKSRKRRLFCTMEPE [TRIM35] | 3.61 ± 0.28 | 3.74 ± 0.19 | – | –
AMAERNRRDAEEWFHAKSAELNKE [KRT13] | 5.03 ± 0.27 | 5.01 ± 0.29 | – | –
ITAFYNEARARARANRGILQQERQ [DNAJC4] | 3.4 ± 0.5 | 3.81 ± 0.36 | – | –
RNKIIAATIENAQPILQIDNARLA [KRT16] | 3.35 ± 0.13 | 3.64 ± 0.14 | – | –
IQQTTRYFSTPQTMDLFLNYSMNM [NANOGP8] | 2.7 ± 0.48 | 2.58 ± 0.58 | – | –
FQILLLSDPSTIEASNFQMDRKTR [PNLIPRP1] | 2.03 ± 0.43 | 2.42 ± 0.28 | – | –
WGFGLEELYGLALRFFKEKDGKAF [ACBD3] | 2.4 ± 0.12 | 2.39 ± 0.61 | – | –
LQCLQALYVDSLFFLRGRLDQLLR [PRAME] | 2.09 ± 0.057 | 2.2 ± 0.61 | – | –
TVVGVPSGKVSSSSSSLGNKLQTL [ZC2HC1A] | 3.56 ± 0.34 | 3.73 ± 0.29 | – | –
EPQPFVTSDVYSSDAAFGGILERY [MYORG] | 3.79 ± 0.095 | 3.87 ± 0.058 | – | –
RFDGLPAVLGFPGFSSGRHRWQVD [TRIM15] | 2.62 ± 0.12 | 2.54 ± 0.18 | – | –
QFFTKGYQETISDVLNDAIFDEDH [GCH1] | 4.01 ± 0.33 | 3.92 ± 0.07 | – | –
SRETECSRVGKQSFIITLGCNSVL [CARM1] | 2.3 ± 0.66 | 2.09 ± 0.38 | – | –
LPDPNNYYHRRNEMTTTDDLDFKH [CPXM2] | 4.55 ± 0.23 | 4.7 ± 0.45 | – | –
PYMNPSPFTVSPNTHVSQVFNLFR [CLCN6] | 2.64 ± 0.16 | 2.73 ± 0.2 | – | –
SSCVKYLIFLSNFPFSLLGLLALA [TSPAN10] | 2.94 ± 0.35 | 2.93 ± 0.35 | – | –
MAESLRSPRRSLYKLVGSPPWKEA [RPAIN] | 2.73 ± 0.48 | 2.77 ± 0.53 | – | –
GKNPDVDTSFLPDRDREEEENRLR [FAM50A] | 5.26 ± 0.11 | 5.49 ± 0.38 | – | –
FTTNKCKGFGFVTMTNYDEAAMAI [ELAVL3] | 2.49 ± 0.65 | 2.51 ± 0.14 | – | –
VKGCSMYVALFPCNECAKLIIQAG [DCTD] | 2.97 ± 0.37 | 2.8 ± 0.49 | – | –
PTVTTSWQSESLPVSLSASQSWHT [BCL2L13] | 3.25 ± 0.31 | 3.12 ± 0.22 | – | –
IEETYSKAMAKLSKLASNGTPMGT [FCHO1] | 3.4 ± 0.073 | 3.78 ± 0.29 | – | –

Sequence | protein stability index [1] | protein stability index [2] | protein stability index (treatment: DMSO, c terminus: native) | protein stability index (treatment: MLN4924 1 uM, 8 h, c terminus: native)
EWVLSTGQDKQFAWHCSESGQRLG [WDFY2] | 3.21 ± 0.23 | 3.05 ± 0.2 | – | –
MAPLLFNGCRSGEIFAIDLRCGNQ [DCAF4] | 2.52 ± 0.29 | 2.3 ± 0.56 | – | –
VLFSTHTLDKCGICQGDGSSCTHV [ADAMTSL2] | 3.8 ± 0.22 | 4.09 ± 0.19 | – | –
DANLLNDRVLRAMLKAEETCAPSV [CCND1] | 3.33 ± 0.34 | 3.61 ± 0.23 | – | –
EFCRNTLCAPEVISLINTRMLFWA [FAF2] | 2.74 ± 0.45 | 2.73 ± 0.32 | – | –
KKNNIKLYVRRVFIMDSCDELIPE [HSP90AB1] | – | 2.06 ± 0.65 | – | –
THLLMGLAGGKLILSLEGGYNLRA [HDAC6] | 3.08 ± 0.91 | 2.91 ± 1 | – | –
CCEFLKRQLDPSNCLGIRAFADTH [KLHL20] | 2.62 ± 0.69 | 2.42 ± 0.48 | – | –
TIILQQLLPLRTKVAKLLGYSTHA [NLN] | 2.33 ± 0.26 | 1.92 ± 0.39 | – | –
GYPPFCSETPQETYRKVMNWKETL [STK38L] | 2.88 ± 0.29 | 3.05 ± 0.37 | – | –
LEGQDAKMIGFPSSAGSVSPRSTS [KRT13] | 5.18 ± 0.16 | 5.152 ± 0.026 | – | –
QVPVVDFQAELRQAFLAETPRGG [SNURF] | – | – | 3.04 ± 0.46 | 3.19 ± 0.36
LGGYVKIDLATWNFQFLPQVNGHP [PTPN9] | 2.92 ± 0.57 | 2.74 ± 0.86 | – | –
DSDSEKQQQIHHIKNLYAFNLFCQ [VPS39] | 2.58 ± 0.29 | 2.71 ± 0.35 | – | –
GGFGGGFAGGFVDFGACDGGLLTG [KRT13] | 2.71 ± 0.084 | 3.12 ± 0.25 | – | –
DKCSAPKIWRTPNGKTIEMDTQFT [IQUB] | 3.53 ± 0.28 | 3.6 ± 0.21 | – | –
IRVWFQNKRCKDKKKSILMKQLQQ [ISL2] | 2.08 ± 0.26 | 2.17 ± 0.23 | – | –
GQCGENLAWASYDQTGKEVADRWY [GLIPR2] | 2.68 ± 0.31 | 3.13 ± 0.26 | – | –
WKEWGFTGVQEVLSALLRATPGEY [SPAG8] | 2.06 ± 0.78 | 2.2 ± 0.53 | – | –
FAASLLTVFAWLLQYARGLWLARA [C2CD2L] | 2.8 ± 0.49 | 2.54 ± 0.4 | – | –
ALGCVMYTMLLGRPPFETTNLKET [PLK2] | 2.72 ± 0.74 | 2.79 ± 1.1 | – | –
PYQALRLWARGTWTQATGLGCALL [SOAT2] | 2.09 ± 0.46 | 2.05 ± 0.3 | – | –
